Laboratory results from patent US10005846 (LIFEARC, dated 2018).

Experiments:
TG13 = target: T1, TG13; assay: ELISA, purified IgG at 0.1 ug/ml, plates coated with 100 ng of each TG [panel B]
T1 construct: also called Factor XIIIa
T1 chain: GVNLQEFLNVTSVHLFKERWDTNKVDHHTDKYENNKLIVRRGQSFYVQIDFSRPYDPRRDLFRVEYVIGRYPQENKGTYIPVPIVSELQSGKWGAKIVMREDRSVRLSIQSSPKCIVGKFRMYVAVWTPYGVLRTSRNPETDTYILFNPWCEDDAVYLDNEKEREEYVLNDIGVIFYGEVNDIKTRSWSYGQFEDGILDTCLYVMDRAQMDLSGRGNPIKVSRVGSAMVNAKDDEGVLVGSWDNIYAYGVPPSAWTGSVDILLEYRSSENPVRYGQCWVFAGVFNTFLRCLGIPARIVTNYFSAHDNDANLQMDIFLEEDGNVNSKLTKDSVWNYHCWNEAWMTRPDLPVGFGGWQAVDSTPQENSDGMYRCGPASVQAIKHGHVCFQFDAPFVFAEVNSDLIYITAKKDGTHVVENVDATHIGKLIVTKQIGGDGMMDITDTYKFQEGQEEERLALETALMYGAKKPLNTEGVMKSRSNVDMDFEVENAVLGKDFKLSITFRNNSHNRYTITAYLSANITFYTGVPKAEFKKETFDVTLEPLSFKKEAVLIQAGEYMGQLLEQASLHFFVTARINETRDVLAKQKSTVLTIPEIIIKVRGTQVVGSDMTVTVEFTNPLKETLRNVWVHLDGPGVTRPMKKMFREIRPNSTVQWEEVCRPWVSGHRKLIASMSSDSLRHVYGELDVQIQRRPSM
Protocol: (§1) Conditioned medium or purified IgG were tested for reactivity to transglutaminase family members. The ability of each to bind to each transglutaminase (TG1, TG2, TG3, TG5, TG7 and Factor XIIIa; all Zedira) was determined using a plate binding assay. Microtiter plates (Costar, Cambridge, UK) were coated with recombinant TG (Zedira, Darmstadt, Germany) in 50 μl of 0.1 M bicarbonate/carbonate buffer (pH 9.6) overnight at 4° C. Plates were blocked for 2 h at 37° C. with 200 μl PBS containing 3% w/v BSA. Plates were washed three times with PBS containing 0.05% Tween 20 (washing buffer) and 100 μl of diluted conditioned medium (dilution 1:5 to 1:20) or purified anti-TG2 catalytic core mAbs was added. Plates were incubated for a further 1 h at room temperature. The washing step was repeated and anti-mouse gamma chain-horseradish peroxidase (1:5000) in PBS containing 0.05% Tween 20 (v:v) and 1% BSA (w:v) (Sigma, Poole UK) was added for 1 h. […] The reaction was stopped by adding 25 μl of 0.1 M H_2SO_4 and the absorbance at 450 nm was determined.

TG3 = target: T2, TG3 (human, UniProt Q08188); assay: as above
T2 construct: recombinant, Zedira; also called recombinant human TG3; Epidermal Transglutaminase
T2 sequence (enzyme, looked up): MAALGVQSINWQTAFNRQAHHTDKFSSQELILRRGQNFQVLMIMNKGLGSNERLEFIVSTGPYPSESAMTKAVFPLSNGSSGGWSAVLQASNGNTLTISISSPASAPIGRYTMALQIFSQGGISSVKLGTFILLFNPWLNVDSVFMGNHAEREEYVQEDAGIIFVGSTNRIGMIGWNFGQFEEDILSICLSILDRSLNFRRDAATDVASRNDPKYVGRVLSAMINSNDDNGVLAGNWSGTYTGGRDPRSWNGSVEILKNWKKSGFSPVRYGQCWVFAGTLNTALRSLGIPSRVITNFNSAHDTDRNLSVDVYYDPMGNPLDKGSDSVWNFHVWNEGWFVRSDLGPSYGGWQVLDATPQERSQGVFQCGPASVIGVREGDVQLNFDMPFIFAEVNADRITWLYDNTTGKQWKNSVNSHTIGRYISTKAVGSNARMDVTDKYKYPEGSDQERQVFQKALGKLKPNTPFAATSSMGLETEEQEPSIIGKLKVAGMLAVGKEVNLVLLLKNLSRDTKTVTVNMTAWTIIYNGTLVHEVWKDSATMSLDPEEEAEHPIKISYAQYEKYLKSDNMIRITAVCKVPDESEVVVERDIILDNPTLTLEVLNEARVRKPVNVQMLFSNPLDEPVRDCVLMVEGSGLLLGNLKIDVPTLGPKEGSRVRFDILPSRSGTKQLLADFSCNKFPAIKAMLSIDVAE
Protocol: as §1

B1: DC1 murine monoclonal antibody (antibody, V domains shown)
VH: EVQLVESGGGLVKPGGSLKLSCAASGFTLSTHAMSWVRQTPEKRLEWVATISSGGRSTYYPDSVKGRFTISRDNVKNTLYLQLSSLRSEDTAVYFCARLISTYWGQGTTLTVSS
VL: DITMTQSPSSIYASLGERVTITCKASQDINSYLTWFQQKPGKSPKILIYLVNRLVDGVPSRFSGSGSGQDYALTISSLEYEDMGIYYCLQYDDFPYTFGGGTKLEIK
notes: Mouse hybridoma IgG; heavy chain amplified with primer MHCG1, kappa light chain; also called mDC001
Question: What does the source list for B1?
Answer: binding result (TG13): no binding (tested: 0.1 ug/ml); binding result (TG3): no binding (tested: 0.1 ug/ml)
